The labels stand for the following.
B1: GTP-binding protein YPT32/YPT11 (Saccharomyces cerevisiae), P51996 (parent)
chain: MSNEDYGYDYDYLFKIVLIGDSGVGKSNLLSRFTTDEFNIESKSTIGVEFATRTIEVENKKIKAQIWDTAGQERYRAITSAYYRGAVGALIVYDISKSSSYENCNHWLTELRENADDNVAVGLIGNKSDLAHLRAVPTDEAKNFAMENQMLFTETSALNSDNVDKAFRELIVAIFQMVSKHQVDLSGSGTNNMGSNGAPKGPTISLTPAPKEDKKKKSSNCC
partner: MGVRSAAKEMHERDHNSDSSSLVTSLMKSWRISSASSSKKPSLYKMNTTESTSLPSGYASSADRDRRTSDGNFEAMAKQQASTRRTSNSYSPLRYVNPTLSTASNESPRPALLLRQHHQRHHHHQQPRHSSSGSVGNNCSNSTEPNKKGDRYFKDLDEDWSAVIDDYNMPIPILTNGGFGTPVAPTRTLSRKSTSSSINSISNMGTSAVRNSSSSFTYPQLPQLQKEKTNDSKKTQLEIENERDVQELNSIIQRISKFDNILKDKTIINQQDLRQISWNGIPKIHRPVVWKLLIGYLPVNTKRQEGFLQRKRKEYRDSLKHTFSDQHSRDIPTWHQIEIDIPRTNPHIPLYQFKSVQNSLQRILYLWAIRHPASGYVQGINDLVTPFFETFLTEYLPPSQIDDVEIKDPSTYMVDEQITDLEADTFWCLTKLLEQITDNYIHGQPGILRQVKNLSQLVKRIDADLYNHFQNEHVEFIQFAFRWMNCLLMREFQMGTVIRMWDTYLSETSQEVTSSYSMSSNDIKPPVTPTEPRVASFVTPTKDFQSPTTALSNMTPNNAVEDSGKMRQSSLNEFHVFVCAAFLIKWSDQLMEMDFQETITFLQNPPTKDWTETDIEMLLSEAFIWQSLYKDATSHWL

These results are taken from IntAct's records for PubMed 19666511.

Variants of B1 are the subject of this experiment. The note with it: with gyp1_yeast GYP1, Q08484.
In the case of MSNEDYGYDYDYLFKIVLIGDSGVGKNNLLSRFTTDEFNIESKSTIGVEFATRTIEVENKKIKAQIWDTAGQERYRAITSAYYRGAVGALIVYDISKSSSYENCNHWLTELRENADDNVAVGLIGNKSDLAHLRAVPTDEAKNFAMENQMLFTETSALNSDNVDKAFRELIVAIFQMVSKHQVDLSGSGTNNMGSNGAPKGPTISLTPAPKEDKKKKSSNCC [S27N], the “effect of a mutation on the interaction” value is on record as “disrupting interaction”.
